The values that follow are results of earlier work, collected in publication PMC11988861, “Step Enzymatic Hydrolysis and In Silico Screening-Assisted Preparation of Bioactive Peptides from Abalone” (Foods, 2025).

The data set has as its target ACE (Homo sapiens, UniProt P12821). The arrangement: method as in PMID 35323475. To be noted: literature ACEi peptides from skipjack tuna muscle.

Sequence of ACE (P12821 30-1306, species assumed): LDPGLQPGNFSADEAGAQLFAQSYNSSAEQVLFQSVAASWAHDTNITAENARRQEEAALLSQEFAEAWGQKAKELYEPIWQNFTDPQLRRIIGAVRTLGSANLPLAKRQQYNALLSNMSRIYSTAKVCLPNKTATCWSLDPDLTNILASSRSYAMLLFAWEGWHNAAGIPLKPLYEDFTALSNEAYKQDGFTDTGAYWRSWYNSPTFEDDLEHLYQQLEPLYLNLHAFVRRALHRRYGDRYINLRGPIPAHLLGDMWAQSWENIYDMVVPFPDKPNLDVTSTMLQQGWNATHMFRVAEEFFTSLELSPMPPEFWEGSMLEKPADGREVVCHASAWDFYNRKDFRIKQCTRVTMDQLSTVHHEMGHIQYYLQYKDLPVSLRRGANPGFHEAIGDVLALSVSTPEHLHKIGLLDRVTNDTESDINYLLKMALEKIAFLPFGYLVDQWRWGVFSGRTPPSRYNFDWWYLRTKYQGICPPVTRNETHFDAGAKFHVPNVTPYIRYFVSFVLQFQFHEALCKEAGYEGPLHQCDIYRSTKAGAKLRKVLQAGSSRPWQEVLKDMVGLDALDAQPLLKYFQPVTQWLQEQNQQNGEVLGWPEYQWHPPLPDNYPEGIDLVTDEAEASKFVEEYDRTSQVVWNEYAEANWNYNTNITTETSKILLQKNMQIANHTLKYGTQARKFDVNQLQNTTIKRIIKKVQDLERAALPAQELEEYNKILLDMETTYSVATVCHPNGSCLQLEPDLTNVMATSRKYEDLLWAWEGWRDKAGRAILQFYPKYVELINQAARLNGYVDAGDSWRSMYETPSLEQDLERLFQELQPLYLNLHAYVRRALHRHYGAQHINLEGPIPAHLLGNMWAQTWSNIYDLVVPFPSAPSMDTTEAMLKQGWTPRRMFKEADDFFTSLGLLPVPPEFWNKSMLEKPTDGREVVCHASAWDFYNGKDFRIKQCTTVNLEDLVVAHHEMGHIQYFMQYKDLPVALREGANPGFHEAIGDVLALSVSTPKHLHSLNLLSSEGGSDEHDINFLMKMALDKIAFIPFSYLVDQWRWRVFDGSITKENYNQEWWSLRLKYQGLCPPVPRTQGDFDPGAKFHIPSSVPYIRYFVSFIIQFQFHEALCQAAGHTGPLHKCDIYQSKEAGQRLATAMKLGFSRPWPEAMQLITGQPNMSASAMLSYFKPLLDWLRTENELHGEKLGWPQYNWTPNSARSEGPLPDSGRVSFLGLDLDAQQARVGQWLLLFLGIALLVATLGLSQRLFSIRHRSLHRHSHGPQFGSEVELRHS

VDRYF: the “ACEi IC50” value was 0.28 mg/mL.
